Measurements from paper PMC8897410.

Experiments:
FimT Lp [1] = biological target: T1, FimT Lp (Legionella pneumophila, UniProt Q5ZVL2 38-162); assay: ITC; 50 mM NaCl, 30 C; N 1.09; 50 mM Tris-HCl pH 7.2, 50 mM NaCl; […]; ITC 30 C; MST 50-150 mM NaCl, 0.05% Tween-20, […]; details: protein: recombinant; tags: His6-SUMO cleaved
FimT Lp [2] = biological target: T1, FimT Lp; assay: ITC; 50 mM Tris-HCl pH 7.2, 50 mM NaCl; […]; ITC 30 C; MST 50-150 mM NaCl, 0.05% Tween-20, […]; details: protein: recombinant; tags: His6-SUMO cleaved; blunt
FimT Lp [3] = biological target: T1, FimT Lp; assay: NMR titration; 50 mM NaCl; 50 mM Tris-HCl pH 7.2, 50 mM NaCl; […]; ITC 30 C; MST 50-150 mM NaCl, 0.05% Tween-20, […]; details: protein: recombinant; tags: His6-SUMO cleaved; blunt
FimT Lp [4] = biological target: T1, FimT Lp; assay: MST/TRIC; 50 mM NaCl; 50 mM Tris-HCl pH 7.2, 50 mM NaCl; […]; ITC 30 C; MST 50-150 mM NaCl, 0.05% Tween-20, […]; details: protein: recombinant; tags: His6-SUMO cleaved; label: 5'-FAM on one strand; blunt
FimT Lp [5] = biological target: T1, FimT Lp; assay: EMSA; 50 mM Tris-HCl pH 7.2, 50 mM NaCl; […]; ITC 30 C; MST 50-150 mM NaCl, 0.05% Tween-20, […]; details: protein: recombinant; tags: His6-SUMO cleaved
FimT Lp [6] = biological target: T1, FimT Lp; assay: EMSA; Kd stated as low uM range; 50 mM Tris-HCl pH 7.2, 50 mM NaCl; […]; ITC 30 C; MST 50-150 mM NaCl, 0.05% Tween-20, […]; details: protein: recombinant; tags: His6-SUMO cleaved; blunt
PilA1 Lp = PilA1 Lp (Legionella pneumophila, UniProt Q5ZU93 35-142); assay: EMSA; up to 100 uM protein; 50 mM Tris-HCl pH 7.2, 50 mM NaCl; […]; ITC 30 C; MST 50-150 mM NaCl, 0.05% Tween-20, […]; details: protein: recombinant; tags: His6 cleaved (PreScission); blunt
FimU Lp = FimU Lp (Legionella pneumophila, UniProt Q5ZXU9 96-235); assay: as above; details: protein: recombinant; tags: His6-SUMO cleaved; blunt
PilA2 Lp = PilA2 Lp (Legionella pneumophila, UniProt Q5ZU92 34-140); assay: as above; details: protein: recombinant; tags: His6 cleaved (PreScission); blunt
FimT Xc = FimT Xc (Xanthomonas campestris pv. campestris …, UniProt Q8P7X0 39-183); assay: EMSA; affinity same order of magnitude as FimT Lp; 50 mM Tris-HCl pH 7.2, 50 mM NaCl; […]; ITC 30 C; MST 50-150 mM NaCl, 0.05% Tween-20, […]; details: protein: recombinant; tags: His6-SUMO cleaved; blunt
FimT Pa = FimT Pa (Pseudomonas aeruginosa PAO1, UniProt Q9HVN0 36-169); assay: as above; details: protein: recombinant; tags: His6-SUMO cleaved; blunt

B1: 12mer ssDNA (ssDNA)
DNA: GTTCGCAACGAA
In the case of B1, the Kd (FimT Lp [1]) is reported as 7 ± 0.3 µM.

B2: 12mer dsDNA (dsDNA)
DNA 1: GTTCGCAACGAA
DNA 2: TTCGTTGCGAAC
Work on B2 yielded a Kd (FimT Lp [2]) of 2.8 ± 0.2 µM and a Kd (FimT Lp [3]) of ~8.1 µM.

B3: FAM-12mer dsDNA (dsDNA)
DNA 1: GTTCGCAACGAA
DNA 2: TTCGTTGCGAAC
In the case of B3, the Kd (FimT Lp [4]) is reported as 6.3 ± 0.9 µM.

B4: 30mer ssDNA (ssDNA)
DNA: TTAAATAGGCTTGGCAGGGTTAGGGTAGGG
B4: binds (FimT Lp [5]).

B5: 30mer dsDNA (dsDNA)
DNA 1: TTAAATAGGCTTGGCAGGGTTAGGGTAGGG
DNA 2: CCCTACCCTAACCCTGCCAAGCCTATTTAA
B5: binds (FimT Lp [6]); no binding (PilA1 Lp); no binding (FimU Lp). B5: no binding (PilA2 Lp); binds (FimT Xc); binds (FimT Pa).
